In article PMC10266124 (mAbs, 2023):
Changes are numbered by the printed parent chain.

B1: mAb21 (S2A4) (antibody, V domains shown)
VH: EVQLVESGGGLVQPGGSLRLSCAASGFTFSSYWMNWVRQAPGKGLEWVANIKQDGSEKYYVDSVKGRFTISRDNAKNSLFLQMNSLRAEDTAVYYCARVWWLRGSFDYWGQGTLVTVSS
VL: NFMLTQPHSVSESPGKTVTISCTGSSGSIASNYVQWYQQRPGSAPTTVIYEDNQRPSGVPDRFSGSIDSSSNSASLTISGLKTEDEADYYCQSYDSSNHVVFGGGTKLTVL
B2: mAb11 (298) (antibody, V domains shown)
VH: QVQLVQSGAEVKKPGASVKVSCKASGGTFSTYGISWVRQAPGQGLEWMGWISPNSGGTDLAQKFQGRVTMTRDTSTSTVYMELSSLRSEDTAVYYCASDPRDDIAGGYWGQGTLVTVSS
VL: not shown
B3: mAb24 (S2E12) (antibody, V domains shown)
VH: not shown
VL: DIVLTQTPGTLSLSPGERATLSCRASQSVSSSYLAWYQQKPGQAPRLLIYGASSRATGIPDRFSGSGSGTDFTLTISRLEPEDFAVYYCQQYVGLTGWTFGQGTKVEIK
B4: mAb18 (CV07-250) (antibody, V domains shown)
VH: QVQLVQSEAEVKEPGASVEVSCKASGYNFTNFAISWVRQAPGQGLEWMGWISGYNGDTNSAQKFLGRVTMTTDTSTTTAYMELRSLRSDDTAVYYCAGSDNYGFPYNGMDVWGQGTTVTVFN
VL: QSALTQPPSASGSPGQSVTISCTGTSSDLGAYHFVTWYQHYPGKAPKVMIYGVRKRPSGVPDRFSGSKSGNTASLTVSGLQDEDEADYYCSSYAGNNDFVFGGGTKLTVL
B5: mAb27 (H014) (antibody, V domains shown)
VH: EVQLVQSGAEVKKPGATVKISCKVSGYSFSNYYIHWVKQAPGKSLEWIGYIDPFNGGTSDNLKFKGAATLTADTSTDTAYMELSSLRSEDTAVYYCARSEYDPYYVMDYWGQGTTVTVSS
VL: IVLTQSPFQSVSPKEKVTITCRASQSISSNLHWYQQKPDQSPKLLIKYASQSISGIPSRFSGSGSGTDFTLTINSLEAEDFGIYFCQQTNFWPYIFGQGTKLEIL
B6: mAb22 (S304) (antibody, V domains shown)
VH: VQLVESGGGLVQPGGSLRLSCAASGFTFSSYDMHWVRQTTGKGLEWVSTIGTAGDTYYPDSVKGRFTISREDAKNSLYLQMNSLRAGDTAVYYCARGDSSGYYYYFDYWGQGTLLTVSS
VL: DIEMTQSPSSLSAAVGDRVTITCRASQSIGSYLNWYQQKPGKAPKLLIYAASSLQSGVPSRFSGSGSGTDFTLTISSLQPEDFAIYYCQQSYVSPTYTFGPGTKVDIK
B7: mAb01 (bamlanivimab) (antibody, V domains shown)
VH: QVQLVQSGAEVKKPGSSVKVSCKASGGTFSNYAISWVRQAPGQGLEWMGRIIPILGIANYAQKFQGRVTITADKSTSTAYMELSSLRSEDTAVYYCARGYYEARHYYYYYAMDVWGQGTAVTVSS
VL: not shown
B8: mAb08 (B38) (antibody, V domains shown)
VH: EVQLVESGGGLVQPGGSLRLSCAASGFIVSSNYMSWVRQAPGKGLEWVSVIYSGGSTYYADSVKGRFTISRHNSKNTLYLQMNSLRAEDTAVYYCAREAYGMDVWGQGTTVTVSS
VL: DIVMTQSPSFLSASVGDRVTITCRASQGISSYLAWYQQKPGKAPKLLIYAASTLQSGVPSRFSGSGSGTEFTLTISSLQPEDFATYYCQQLNSYPPYTFGQGTKLEIK
B9: mAb02 (casirivimab) (antibody, V domains shown)
VH: QVQLVESGGGLVKPGGSLRLSCAASGFTFSDYYMSWIRQAPGKGLEWVSYITYSGSTIYYADSVKGRFTISRDNAKSSLYLQMNSLRAEDTAVYYCARDRGTTMVPFDYWGQGTLVTVSS
VL: DIQMTQSPSSLSASVGDRVTITCQASQDITNYLNWYQQKPGKAPKLLIYAASNLETGVPSRFSGSGSGTDFTFTISGLQPEDIATYYCQQYDNLPLTFGGGTKVEIK
B10: mAb23 (COVA1-16) (antibody, V domains shown)
VH: QVQLVQSGAEVKKPGASVKVSCKASGYTFTSYYMHWVRQAPGQGLEWMGIINSSGGSTSYAQKFQGRVTMTRDTSTSTVYMELSSLRSEDTAVYYCARPPRNYYDRSGYYQRAEYFQHWGQGTLVTVSS
VL: B9 VL with M4L, T30S, K39R, A50D, G77S, L94P, V104L
B11: mAb25 (S2M11) (antibody, V domains shown)
VH: EVQLVQSGAEVKKPGASVKVSCKASGYTFTGYYMHWVRQAPGQGLEWMGWINPISSGTSYAQTFQGRVTMTSDTSITTAYMELSRLRSDDTAVYYCARAAPFYDFWSGYSYFDYWGQGTLVTVSS
VL: not shown
B12: mAb09 (etesevimab) (antibody, V domains shown)
VH: EVQLVESGGGLVQPGGSLRLSCAASGFTVSSNYMSWVRQAPGKGLEWVSVIYSGGSTFYADSVKGRFTISRDNSMNTLFLQMNSLRAEDTAVYYCARVLPMYGDYLDYWGQGTLVTVSS
VL: not shown
B13: mAb10 (52) (antibody, V domains shown)
VH: QVQLVQSGAEVKKPGSSVKVSCKASGYTFTSYGISWVRQAPGQGLEWMGGIIPMFGTTNYAQKFQGRVTITADKSTSTAYMELSSLRSEDTAVYYCARDRGDTIDYWGQGTLVTVSS
VL: DIQMTQSPSSLSASVGDRVTITCRASQGISNNLNWYQQKPGKAPKLLIYAASSLESGVPSRFSGSGSGTDFTLTISSLQPEDFATYYCQQGNGFPLTFGPGTKVDIK
B14: mAb29 (regdanvimab) (antibody, V domains shown)
VH: QITLKESGPTLVKPTQTLTLTCSFSGFSLSTSGVGVGWIRQPPGKALEWLALIDWDDNKYHTTSLKTRLTISKDTSKNQVVLTMTNMDPVDTATYYCARIPGFLRYRNRYYYYGMDVWGQGTTVTVSS
VL: ELVLTQPPSVSAAPGQKVTISCSGSSSNIGNNYVSWYQQLPGTAPKLLIYDNNKRPSGIPDRFSGSKSGTSATLGITGLQTGDEADYYCGTWDSSLSAGVFGGGTELTVL
B15: mAb26 (4A8) (antibody, V domains shown)
VH: EVQLVESGAEVKKPGASVKVSCKVSGYTLTELSMHWVRQAPGKGLEWMGGFDPEDGETMYAQKFQGRVTMTEDTSTDTAYMELSSLRSEDTAVYYCATSTAVAGTPDLFDYYYGMDVWGQGTTVTVSS
VL: EIVMTQSPLSSPVTLGQPASISCRSSQSLVHSDGNTYLSWLQQRPGQPPRLLIYKISNRFSGVPDRFSGSGAGTDFTLKISRVEAEDVGVYYCTQATQFPYTFGQGTKVDIK
B16: mAb16 (C121) (antibody, V domains shown)
VH: not shown
VL: QSALTQPASVSGSPGQSITISCTGTSSDVGSYNLVSWYQQHPGKAPKLMIYEGSKRPSGVSNRFSGSKSGNTASLTISGLQAEDEADYYCCSYAGSSTLVFGGGTKLTVL
B17: mAb19 (CV07-270) (antibody, V domains shown)
VH: QVQLVESGGGLVKPGGSLRLSCAASGFTFSDYYMTWIRQAPGKGLEWVSYISSSGSTIYYADSVKGRFTISRDNAKNSLYLQMNSLRAEDTAVYYCARARGSSGWYRIGTRWGNWFDPWGQGTLVTVSS
VL: B16 VL with S31G, L34Y, G53V, K55N, C91S, A94T, G95S, T98N, L99V, K106M
B18: mAb15 (C119) (antibody, V domains shown)
VH: QVQLVQSGAEVKKPGASVKVSCKASGYTFTSYYMHWVRQAPGQGLEWMGIINPSGGSTSYAQKLQGRVTMTRDTSTSTVYMELSSLRSEDTAVYYCARANHETTMDTYYYYYYMDVWGKGTTVTVSS
VL: QSALTQPASVSGSPGQSITISCTGTSSDVGGYKYVSWYQRHPGKAPKLMIYDVSNRPSGVSNRFSGSKSGNTASLTISGLQAEDEADYYCSSYTSSSTSVVFGGGTQLTVL
B19: mAb14 (C002) (antibody, V domains shown)
VH: EVQLVESGGGVVQPGRSLRLSCAASGFTFSIYGMHWVRQAPGKGLEWVAVISYDGSNKYYADSVKGRFTISRDNSKNTLYLQMNSLRAEDTAVYYCAKEGRPSDIVVVVAFDYWGQGTLVTVSS
VL: not shown
B20: mAb03 (imdevimab) (antibody, V domains shown)
VH: QVQLVESGGGVVQPGRSLRLSCAASGFTFSNYAMYWVRQAPGKGLEWVAVISYDGSNKYYADSVKGRFTISRDNSKNTLYLQMNSLRTEDTAVYYCASGSDYGDYLLVYWGQGTLVTVSS
VL: QSALTQPASVSGSPGQSITISCTGTSSDVGGYNYVSWYQQHPGKAPKLMIYDVSKRPSGVSNRFSGSKSGNTASLTISGLQSEDEADYYCNSLTSISTWVFGGGTKLTVL

These binders were tested against Biotinylated SARS-CoV-2 spike S1 protein (SARS-CoV-2, Wuhan, UniProt P0DTC2, biotin (biotinylated)) (assay: SPR).

Does B1 bind?
Result: binds

Does B2 bind?
Result: binds

Does B3 bind?
Result: binds

Does B4 bind?
Result: binds

Does B5 bind?
Result: binds

Does B6 bind?
Result: binds

Does B7 bind?
Result: binds

Does B8 bind?
Result: binds

Does B9 bind?
Result: binds

Does B10 bind?
Result: binds

Does B11 bind?
Result: binds

Does B12 bind?
Result: binds

Does B13 bind?
Result: binds

Does B14 bind?
Result: binds

Does B15 bind?
Result: binds

Does B16 bind?
Result: binds

Does B17 bind?
Result: binds

Does B18 bind?
Result: binds

Does B19 bind?
Result: binds

Does B20 bind?
Result: binds
